Target: bovine β-arrestin 1 (1–393) (bovine, UniProt P17870)
Assay: cryo-EM structure

Chain of bovine β-arrestin 1 (1–393) (P17870 1-393): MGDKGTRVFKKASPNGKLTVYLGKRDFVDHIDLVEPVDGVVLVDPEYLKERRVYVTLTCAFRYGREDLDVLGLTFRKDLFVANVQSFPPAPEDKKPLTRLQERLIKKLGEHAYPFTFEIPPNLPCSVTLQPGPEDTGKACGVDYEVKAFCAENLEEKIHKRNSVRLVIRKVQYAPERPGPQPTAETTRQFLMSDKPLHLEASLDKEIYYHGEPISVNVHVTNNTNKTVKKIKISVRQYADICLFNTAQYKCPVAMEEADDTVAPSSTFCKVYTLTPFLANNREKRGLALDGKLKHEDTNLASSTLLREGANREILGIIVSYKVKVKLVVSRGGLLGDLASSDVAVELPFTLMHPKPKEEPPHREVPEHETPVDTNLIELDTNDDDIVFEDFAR

binding result: binds
B1: Nanobody 32 (VHH)
VHH: QVQLQESGGGLVQAGGSLRLSCVVSGFFFDTVTMAWYRRAPGKHRELVASATAGGTTTYADSVKDRFTISRDNAKNTVYLQMNSLKPEDTAVYYCNTFVRSLSWGQGTQVTVSS
